Data as given in US10858688.

target: intermediate filament in fixed and permeabilized Xenopus laevis XTC cells (Xenopus laevis); experiment: single-molecule speckle (SiMS) TIRF imaging of EGFP-fused probe (cell lysate) on fixed, permeabilized XTC cells; exponential fit of speckle lifetimes

| Substance | half-life |
| --- | --- |
| Plectin-1 fragment (amino acid residues 3777-4364 of sequence number 8), FLAG-EGFP fused at the N terminus | 0.059 s |
| Plectin-1 fragment (amino acid residues 3777-4684 of sequence number 8), FLAG-EGFP fused at the N terminus | 0.457 s |
| Plectin-1 fragment (amino acid residues 4066-4364 of sequence number 8), FLAG-EGFP fused at the N terminus | 7.7 s |

Next, values leading:

| half-life | Substance |
| --- | --- |
| 0.052 s | Plectin-1 fragment (amino acid residues 3777-4313 of sequence number 8), FLAG-EGFP fused at the N terminus |
| 0.103 s | Plectin-1 fragment (amino acid residues 4022-4364 of sequence number 8), FLAG-EGFP fused at the N terminus |

target: focal adhesion in fixed and permeabilized Xenopus laevis XTC cells (Xenopus laevis); experiment: as above

| Substance | half-life |
| --- | --- |
| Paxillin fragment (amino acid residues 54-557 of sequence number 15), FLAG-EGFP fused at the N terminus | 0.246 s |
| Paxillin fragment (amino acid residues 167-557 of sequence number 15), FLAG-EGFP fused at the N terminus | 0.138 s |
| Paxillin full length (FL) (full length of sequence number 15, residues 1-557), FLAG-EGFP fused at the N terminus | 0.196 s |

The remaining lines, values ahead:

| half-life | Substance |
| --- | --- |
| 0.091 s | Paxillin fragment (amino acid residues 54-498 of sequence number 15), FLAG-EGFP fused at the N terminus |
| 0.496 s | phosphatidylinositol-(4)-phosphate 5-kinase type Iγ-90 (PIPKIγ) fragment (641-668) (sequence number 18), N terminus tagged with FLAG-EGFP |

target: microtubule in fixed and permeabilized Xenopus laevis XTC cells (Xenopus laevis); experiment: as above

| Substance | half-life |
| --- | --- |
| APC fragment (amino acid residues 2781-2819 of sequence number 14), FLAG-EGFP fused at the N terminus | 0.027 s |
| CLIP-170 fragment (amino acid residues 3-309 of sequence number 12), FLAG-EGFP fused at the N terminus | 0.044 s |
| Tau isoform 3 (full length of sequence number 5, residues 1-383), FLAG-EGFP fused at the N terminus | 0.11 s |

Further lines, results first:

| half-life | Substance |
| --- | --- |
| 0.1 s | APC fragment (amino acid residues 2536-2843 of sequence number 14), EGFP-3xFLAG fused at the C terminus |
| 0.109 s | MAP4 fragment (amino acid residues 1-908 of sequence number 4), FLAG-EGFP fused at the N terminus |
| 0.106 s | MAP4 fragment (amino acid residues 659-908 of sequence number 4), FLAG-EGFP fused at the N terminus |
| 0.06 s | Tau isoform 4 (sequence number 6, residues 1-352), FLAG-EGFP fused at the N terminus |
